{
  "source": "patent US20240124575A1",
  "about": "(SIMCERE ZAIMING PHARMACEUTICAL, published 2024)",
  "key": {"[1]": {"biological_target": "T1, human CD33 on CHO-K1 cells (CHO-K1-human CD33) (human, UniProt P20138 18-364)", "T1 construct": "whole, on cells; stably transfected CHO-K1 clones; also called CHO-K1-hCD33-B8; CHO-K1-human CD33 B8", "T1 sequence (P20138 18-364)": "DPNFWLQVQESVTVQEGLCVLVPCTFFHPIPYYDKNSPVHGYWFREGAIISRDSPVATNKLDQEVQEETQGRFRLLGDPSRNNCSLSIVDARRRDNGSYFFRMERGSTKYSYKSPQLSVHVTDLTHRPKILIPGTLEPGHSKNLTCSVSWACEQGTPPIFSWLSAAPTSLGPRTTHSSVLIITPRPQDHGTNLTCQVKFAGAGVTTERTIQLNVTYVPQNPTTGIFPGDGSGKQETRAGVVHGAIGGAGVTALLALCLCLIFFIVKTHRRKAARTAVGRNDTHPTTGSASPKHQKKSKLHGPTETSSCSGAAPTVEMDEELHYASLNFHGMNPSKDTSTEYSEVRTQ", "test": "FACS, CHO-K1-human CD33 cells", "method": "(§1) The desired cells were expanded to a logarithmic growth phase in a T-75 cell culture flask. For adherent cells CHO-K1, the culture medium was removed by pipetting, and the cells were washed twice with a PBS buffer, digested with trypsin, and washed twice with a PBS buffer again after the digestion was stopped. For suspension cells U937, the medium supernatant was discarded by direct centrifugation, and the cell pellet was washed twice with PBS, and then incubated with a buffer containing human Fc Block (purchased from BD, Cat. No. 564220) for 15 min. After the cells obtained in the last step were subjected to cell counting, the cell pellet was resuspended to 2×10⁶ cells/mL with a blocking solution [PBS+2% (w/w) BSA] and added to a 96-well FACS reaction plate at 50 μL/well. The VHH-Fc antibody (a sample to be tested) was added at 50 μL/well, and the plate was incubated on ice for 2 h. […] After the plate was centrifuged and washed 5 times with a PBS buffer, the results were assayed and analyzed by FACS (FACS Canto™, purchased from BD Biosciences), so as to obtain the mean fluorescence intensity (MFI) of cells. Then, analysis was performed by software (GraphPad Prism8), data were fitted, and EC50 values were calculated."}, "[2]": {"biological_target": "T1, human CD33 on CHO-K1 cells …", "test": "FACS, CHO-K1-human CD33 cells", "method": "as §1", "remark": "listed apart in the source"}, "monkey CD33-His protein [3]": {"biological_target": "T2, monkey CD33-His protein (monkey)", "T2 construct": "also called monkey CD33 protein", "test": "ELISA on coated monkey CD33-his"}, "[4]": {"biological_target": "T3, human CD33-His (extracellular domain Asp 18-His 259) (human, UniProt P20138 18-259)", "T3 construct": "range 18-259; bought protein; also called hCD33-his; human CD33 protein; not shown: His tag", "T3 sequence (P20138 18-259 limits assumed)": "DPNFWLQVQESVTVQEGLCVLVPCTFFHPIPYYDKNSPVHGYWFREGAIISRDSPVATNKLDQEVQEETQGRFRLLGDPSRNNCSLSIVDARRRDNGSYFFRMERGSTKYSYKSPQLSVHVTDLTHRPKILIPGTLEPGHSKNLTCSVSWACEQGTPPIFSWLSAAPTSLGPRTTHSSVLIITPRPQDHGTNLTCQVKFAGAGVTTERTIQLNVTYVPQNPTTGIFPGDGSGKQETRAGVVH", "test": "ELISA on coated human CD33-his", "method": "In order to assay the binding activity of VHH-Fc to human CD33 protein, a human CD33-his protein (purchased from ACROBiosystems, Cat. No. CD3-H5226) was diluted with PBS to make a final concentration of 2 μg/mL, and then added into a 96-well ELISA plate at 100 μL/well. The plate was sealed with a plastic film and incubated at 4° C. overnight, washed twice with PBS the next day, and a blocking solution [PBS+2% (w/w) BSA] was added for blocking at room temperature for 2 h. The blocking solution was discarded, and VHH-Fc antibody or negative control antibody serially diluted from 100 nM was added at 50 μL/well. After incubation at 37° C. for 2 h, the plate was washed 3 times with PBS. A secondary antibody labeled with HRP (horseradish peroxidase) (purchased from Sigma, Cat. No. A0170) was added. After incubation for 1 h at 37° C., the plate was washed 5 times with PBS. A TMB substrate was added at 50 μL/well. After incubation at room temperature for 10 min, a stop solution (1.0 N HCl) was added at 50 μL/well. The OD450 nm values were read on an ELISA plate reader (Multimode Plate Reader, EnSight, purchased from Perkin Elmer). The assay results for the binding of the VHH-Fc to hCD33-his by ELISA are shown in FIGS. 7A and 7B and Tables 11 and 12. […] The IgG control was hIgG1, and the data in the table are OD450 nm values. […]"}, "monkey CD33-His protein [5]": {"biological_target": "T2, monkey CD33-His protein", "test": "ELISA on coated monkey CD33-his", "remark": "listed apart in the source"}, "human CD33-C2-his": {"biological_target": "T4, human CD33-C2-his (human, UniProt P20138 136-260)", "T4 construct": "expressed in HEK293E; also called hCD33-C2-his; human CD33 protein C2-domain; not shown: His tag", "T4 sequence (P20138 other isoform, or with tags, fused parts or gaps limits assumed)": "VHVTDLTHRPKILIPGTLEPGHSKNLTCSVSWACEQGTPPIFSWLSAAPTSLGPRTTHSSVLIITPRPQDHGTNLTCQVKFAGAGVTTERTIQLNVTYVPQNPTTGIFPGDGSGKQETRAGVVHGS", "test": "ELISA on coated human CD33-C2-his"}, "human CD33-his protein": {"biological_target": "T5, human CD33-his protein (human, UniProt P20138 18-259)", "T5 construct": "range 18-259; bought protein; also called hCD33-his; recombinant human CD33-his; not shown: His tag", "T5 sequence (P20138 18-259 limits assumed)": "as the sequence (P20138 18-259 limits assumed) above", "test": "competition ELISA, coated human CD33-his, vs Biotin-C33B904 at EC80; antibody 1.95 nM", "method": "The plate was sealed with a plastic film and incubated at 4° C. overnight, washed twice with PBS the next day, and a blocking solution [PBS+2% (w/w) BSA] was added for blocking at room temperature for 2 h. The blocking solution was discarded, and VHH-Fc antibody or negative control antibody serially diluted from 100 nM was added at 50 μL/well. After incubation at 37° C. for 2 h, the plate was washed 3 times with PBS. A secondary antibody labeled with HRP (horseradish peroxidase) (purchased from Sigma, Cat. No. A0170) was added. After incubation for 1 h at 37° C., the plate was washed 5 times with PBS. A TMB substrate was added at 50 μL/well. After incubation at room temperature for 10 min, a stop solution (1.0 N HCl) was added at 50 μL/well. The OD450 nm values were read on an ELISA plate reader (Multimode Plate Reader, EnSight, purchased from Perkin Elmer). The assay results for the binding of the VHH-Fc to hCD33-his by ELISA are shown in FIGS. 7A and 7B and Tables 11 and 12. […] The IgG control was hIgG1, and the data in the table are OD450 nm values.\nELISA plates were coated with 2 μg/mL human CD33-his protein according to the method in Example 5.1; the Biotin-C331B904 antibody was subjected to a gradient dilution from 15 μg/mL, and EC80 values (0.18 μg/mL) were calculated. […] OD_{450 nm} values were read using an ELISA plate reader (Insight, purchased from PerkinElmer). […]"}},
  "note": "Like-named read-outs stand apart in the source and are kept apart here.",
  "data": [
    {"binder": "C33B904 hIgG1 (antibody, V domains shown, intact human IgG1; variable regions from US20190382481A1; also called C33B3904; C331B904) VH: EVQLVESGGGLVQPGRSLRLSCAASGFTFDDYAMHWVRQAPGKGLEWVSGIGWSGGSIVYADSVKGRFTISRDNAKNSLYLQMNSLRAEDTALYYCAKDSPYGDFFDYWGQGTLVTVSS VL: DIVMTQSPDSLAVSLGERATINCKSSQTVFYSSNNKNYLAWYQQKPGQPPKLLISWASTRKSGVPDRFSGSGSGTDFTLTVSSLQAEDVAVYYCQHYYSTPYTFGQGTKLEIKR", "values": [
      {"measurement": "EC50", "setting": "[1]", "value": 12.5, "unit": "nM"},
      {"measurement": "Max MFI", "setting": "[1]", "value": 15000, "unit": "MFI"},
      {"measurement": "EC50", "setting": "[2]", "value": 4.53, "unit": "nM"},
      {"measurement": "Max MFI", "setting": "[2]", "value": 12400, "unit": "MFI"},
      {"measurement": "EC50 (read off the curve)", "setting": "monkey CD33-His protein [3]", "value": "~0.3", "unit": "nM"},
      {"measurement": "EC50 (read off the curve)", "setting": "[4]", "value": "~0.3", "unit": "nM"},
      {"measurement": "EC50 (read off the curve)", "setting": "monkey CD33-His protein [5]", "value": "~0.1", "unit": "nM"},
      {"measurement": "EC50 (read off the curve)", "setting": "human CD33-C2-his", "value": "~0.3", "unit": "nM"}
    ]},
    {"binder": "C33B904 (antibody, human IgG1, kappa, V domains shown, control antibody, intact human IgG1 form; variable regions from US20190382481A1; also called C33B904 hIgG1; C331B904) VH: EVQLVESGGGLVQPGRSLRLSCAASGFTFDDYAMHWVRQAPGKGLEWVSGIGWSGGSIVYADSVKGRFTISRDNAKNSLYLQMNSLRAEDTALYYCAKDSPYGDFFDYWGQGTLVTVSS VL: DIVMTQSPDSLAVSLGERATINCKSSQTVFYSSNNKNYLAWYQQKPGQPPKLLISWASTRKSGVPDRFSGSGSGTDFTLTVSSLQAEDVAVYYCQHYYSTPYTFGQGTKLEIKR", "values": [
      {"measurement": "OD450 (Biotin-C33B904 signal)", "setting": "human CD33-his protein", "value": 2.43}
    ]}
  ]
}
